Reference: paper PMC12723722, “Phosphorylation event changes the RNA binding mode of EZH2 disordered segment”

Columns and labels:
EZH2 loop WT = EZH2 loop WT (UniProt Q15910 340-435); assay: EMSA; small but clear shift; EMSA: LightShift RNA EMSA kit protocol, 1-2 nM refolded RNA, 30 min room temperature, 4 or 6% native PAGE, 0.5x TBE; MST: Monolith NT.115, standard treated capillaries, 40% MST power; binding buffer, salt and pH not given in the material; settings: protein: recombinant; tags: His tag implied (pET22b, HisTrap); label: 3' biotin (EMSA); Cy5 aminoallyl-UTP for labelled RNA; hairpin (predicted)
Sequence of EZH2 loop WT (Q15910 340-435): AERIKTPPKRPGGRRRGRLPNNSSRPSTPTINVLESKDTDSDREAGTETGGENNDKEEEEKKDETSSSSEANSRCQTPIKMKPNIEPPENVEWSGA

Thymosin beta 4 (Tβ4) = Thymosin beta 4 (Tβ4) (UniProt P62328 2-44, not fully specified); assay: EMSA; EMSA: LightShift RNA EMSA kit protocol, 1-2 nM refolded RNA, 30 min room temperature, 4 or 6% native PAGE, 0.5x TBE; MST: Monolith NT.115, standard treated capillaries, 40% MST power; binding buffer, salt and pH not given in the material; settings: protein: recombinant; label: 3' biotin (EMSA); Cy5 aminoallyl-UTP for labelled RNA; hairpin (predicted)
Sequence of Thymosin beta 4 (Tβ4) (P62328 2-44): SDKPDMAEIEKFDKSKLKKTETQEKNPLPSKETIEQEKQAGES

## AAGAAUGGCCUCGCGGAGGCAUGCGUCAUGCUAGCGUGCGGGGUACUCUU (structured_RNA) [R50]
EZH2 loop WT
  binding result: binds
Thymosin beta 4 (Tβ4)
  binding result: no binding
